Assay results as given in patent US20050037969A1 (ARBOR VITA, published 2005).
Ends that are not written are not given here. * marks the point of attachment. Biotin = O=C1N[C@H]2[C@H](CS[C@H]2CCCCC(=O)*)N1

T1: GST-LIM protein PDZ domain fusion protein (Human, UniProt Q96HC4 2-85)
T1 construct: also called Human LIM protein; not shown: glutathione S-transferase encoded by vector pGEX-3X (Pharmacia)
T1 sequence: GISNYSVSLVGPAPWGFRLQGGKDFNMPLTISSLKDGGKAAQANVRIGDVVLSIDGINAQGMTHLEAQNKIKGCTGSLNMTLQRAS

T2: GST-PDZK1 fusion protein (PDZ domains 2-4) (Homo sapiens, UniProt Q5T2W1 134-457)
T2 construct: not shown: glutathione S-transferase encoded by vector pGEX-3X (Pharmacia)
T2 sequence: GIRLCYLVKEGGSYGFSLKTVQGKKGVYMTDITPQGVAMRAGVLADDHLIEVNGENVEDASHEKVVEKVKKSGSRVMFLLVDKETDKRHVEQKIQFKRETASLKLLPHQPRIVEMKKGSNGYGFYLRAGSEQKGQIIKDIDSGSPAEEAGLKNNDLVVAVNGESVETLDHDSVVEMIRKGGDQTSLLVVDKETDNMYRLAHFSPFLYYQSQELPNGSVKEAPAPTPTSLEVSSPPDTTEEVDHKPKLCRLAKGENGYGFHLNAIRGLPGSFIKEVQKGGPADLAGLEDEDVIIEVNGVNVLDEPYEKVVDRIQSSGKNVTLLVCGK

T3: GST-DLG5 (p-dlg) PDZ domain fusion protein (Human, UniProt Q8TDM6 1343-1583)
T3 construct: also called Human discs large protein p-dlg; not shown: glutathione S-transferase encoded by vector pGEX-3X (Pharmacia)
T3 sequence: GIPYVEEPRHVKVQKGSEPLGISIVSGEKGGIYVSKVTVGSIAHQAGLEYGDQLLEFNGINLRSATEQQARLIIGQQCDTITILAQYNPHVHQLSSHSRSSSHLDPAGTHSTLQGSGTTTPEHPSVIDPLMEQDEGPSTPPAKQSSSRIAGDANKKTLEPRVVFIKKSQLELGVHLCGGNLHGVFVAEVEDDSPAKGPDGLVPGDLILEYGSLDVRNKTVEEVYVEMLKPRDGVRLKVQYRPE

T4: GST-TAX-IP40 PDZ domain fusion protein (human, UniProt Q6B4M5 150-252 (rat entry))
T4 construct: also called TAX40; not shown: glutathione S-transferase encoded by vector pGEX-3X (Pharmacia)
T4 sequence: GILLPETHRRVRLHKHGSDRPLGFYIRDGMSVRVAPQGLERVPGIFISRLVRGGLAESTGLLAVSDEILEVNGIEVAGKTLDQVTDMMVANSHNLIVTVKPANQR

T5: GST-DVL1 PDZ domain fusion protein (human, UniProt O14640 247-339)
T5 construct: also called human dishevelled segment polarity protein homolog; not shown: glutathione S-transferase encoded by vector pGEX-3X (Pharmacia)
T5 sequence: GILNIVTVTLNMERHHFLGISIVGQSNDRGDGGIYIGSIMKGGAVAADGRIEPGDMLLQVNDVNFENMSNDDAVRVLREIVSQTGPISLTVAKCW

T6: GST-KIAA0303 PDZ domain fusion protein (Homo sapiens (Human), UniProt O15021 1138-1228)
T6 construct: also called K303; not shown: glutathione S-transferase encoded by vector pGEX-3X (Pharmacia)
T6 sequence: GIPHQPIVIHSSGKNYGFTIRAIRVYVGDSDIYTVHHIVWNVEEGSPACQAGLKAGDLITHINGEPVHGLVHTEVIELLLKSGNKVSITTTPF

T7: TAX-IP2L PDZ-GST fusion protein (Homo sapiens (Human), UniProt Q8TF64 107-197)
T7 construct: Order of GST and PDZ part and limits not seen in the excerpts
T7 sequence: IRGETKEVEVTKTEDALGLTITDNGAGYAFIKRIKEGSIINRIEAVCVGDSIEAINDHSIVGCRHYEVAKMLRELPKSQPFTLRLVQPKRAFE

T8: TAX-IP33 PDZ-GST fusion protein (Homo sapiens (Human), UniProt O14910 103-193)
T8 construct: Order of GST and PDZ part and limits not seen in the excerpts
T8 sequence: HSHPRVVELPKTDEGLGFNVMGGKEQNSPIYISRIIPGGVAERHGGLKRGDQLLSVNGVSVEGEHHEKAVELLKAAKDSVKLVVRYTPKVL

T9: MINT3 PDZ-GST fusion protein
T9 construct: Order of GST and PDZ part and limits not seen in the excerpts
T9 chain: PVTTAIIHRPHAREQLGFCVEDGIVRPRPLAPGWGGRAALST

T10: K559 PDZ-GST fusion protein (Homo sapiens (Human), UniProt Q9Y6V0 4489-4593)
T10 construct: Order of GST and PDZ part and limits not seen in the excerpts
T10 sequence: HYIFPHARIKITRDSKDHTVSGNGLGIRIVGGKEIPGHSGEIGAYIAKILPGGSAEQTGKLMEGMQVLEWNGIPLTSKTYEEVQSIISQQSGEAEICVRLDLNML

T11: GEF PDZ-GST fusion protein (Homo sapiens (Human), UniProt Q8TEU7 293-400)
T11 construct: The label GEF is not explained in the excerpts
T11 sequence: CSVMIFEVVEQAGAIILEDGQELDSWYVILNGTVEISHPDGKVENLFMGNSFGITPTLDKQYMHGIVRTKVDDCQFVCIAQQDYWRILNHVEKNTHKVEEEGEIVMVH

B1: Spectrin (beta) C-terminal peptide AA32L, biotinylated (peptide)
peptide: Biotin-SFPPCGHRENVPGQSLVSFV
notes: Marked (S), sticky; also called Spectrin beta (S); Spectrin β
B2: DOCK2 C-terminal peptide AA40L, biotinylated (peptide)
peptide: Biotin-LASKSAEEGKQIPDSLSTDL
B3: CD46 (Form 1) C-terminal peptide AA10L, biotinylated (peptide)
peptide: Biotin-KKGTYLTDETHREVKFTSL
B4: KV1.3 C-terminal peptide AA33L, biotinylated (peptide)
peptide: Biotin-TTNNNPNSAVNIKKIFTDV
B5: VCAM1 C-terminal peptide AA17L, biotinylated (peptide)
peptide: Biotin-ARKANMKGSYSLVEAQKSKV
notes: also called CD106

Biological target: T1, GST-LIM protein PDZ domain fusion …
Test: A/G assays

| Binder | binding result |
| --- | --- |
| B1 | no binding |
| B2 | no binding |
| B3 | no binding |
| B4 | no binding |
| B5 | no binding |

Biological target: T2, GST-PDZK1 fusion protein (PDZ domains …)
Test: A/G assays

| Binder | binding result |
| --- | --- |
| B1 | no binding |
| B2 | no binding |
| B3 | no binding |
| B4 | no binding |
| B5 | no binding |

Biological target: T3, GST-DLG5 (p-dlg) PDZ domain fusion …
Test: A/G assays

| Binder | binding result |
| --- | --- |
| B2 | no binding |
| B3 | no binding |
| B4 | no binding |
| B5 | no binding |

Biological target: T4, GST-TAX-IP40 PDZ domain fusion protein
Test: A/G assays

| Binder | binding result |
| --- | --- |
| B1 | no binding |
| B2 | no binding |
| B3 | no binding |
| B4 | no binding |
| B5 | no binding |

Biological target: T12, GST-TIAM1 PDZ domain fusion protein (Homo sapiens (Human), UniProt Q13009 845-931)
T12 construct: also called TLAM1; T-lymphoma invasion and metastasis inducing protein 1; not shown: glutathione S-transferase encoded by vector pGEX-3X (Pharmacia)
T12 sequence (Q13009 other isoform, or with tags, fused parts or gaps): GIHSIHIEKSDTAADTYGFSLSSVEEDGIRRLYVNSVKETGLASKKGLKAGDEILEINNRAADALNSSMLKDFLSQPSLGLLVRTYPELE
Test: A/G assays

| Binder | binding result |
| --- | --- |
| B1 | no binding |
| B2 | no binding |
| B3 | no binding |
| B4 | no binding |

Biological target: T5, GST-DVL1 PDZ domain fusion protein
Test: A/G assays

| Binder | binding result |
| --- | --- |
| B1 | no binding |
| B2 | no binding |
| B3 | no binding |
| B5 | no binding |

Biological target: T6, GST-KIAA0303 PDZ domain fusion protein
Test: A/G assays

| Binder | binding result |
| --- | --- |
| B2 | no binding |
| B3 | no binding |
| B4 | no binding |

Biological target: T7, TAX-IP2L PDZ-GST fusion protein
Test: A/G assays

| Binder | binding result |
| --- | --- |
| B2 | no binding |
| B3 | no binding |
| B4 | no binding |
| B5 | no binding |

Biological target: T8, TAX-IP33 PDZ-GST fusion protein
Test: A/G assays

| Binder | binding result |
| --- | --- |
| B2 | no binding |
| B3 | no binding |
| B4 | no binding |
| B5 | no binding |

Biological target: T9, MINT3 PDZ-GST fusion protein
Test: A/G assays

| Binder | binding result |
| --- | --- |
| B2 | no binding |
| B3 | no binding |
| B4 | no binding |
| B5 | no binding |

Biological target: T10, K559 PDZ-GST fusion protein
Test: A/G assays

| Binder | binding result |
| --- | --- |
| B1 | no binding |
| B2 | no binding |
| B3 | no binding |
| B4 | no binding |
| B5 | no binding |

Biological target: T13, NSP PDZ-GST fusion protein (Homo sapiens (Human), UniProt Q92743 370-466)
T13 construct: The label NSP is not explained in the excerpts
T13 sequence (Q92743 other isoform, or with tags, fused parts or gaps limits assumed): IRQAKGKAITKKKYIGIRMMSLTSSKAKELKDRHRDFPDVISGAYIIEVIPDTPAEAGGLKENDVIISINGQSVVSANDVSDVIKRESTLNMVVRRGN
Test: A/G assays

| Binder | binding result |
| --- | --- |
| B2 | no binding |
| B3 | no binding |
| B4 | no binding |
| B5 | no binding |

Biological target: T11, GEF PDZ-GST fusion protein
Test: A/G assays

| Binder | binding result |
| --- | --- |
| B2 | no binding |
| B3 | no binding |
| B4 | no binding |
| B5 | no binding |

Biological target: T14, NOS1 PDZ-GST fusion protein (Homo sapiens (Human), UniProt P29475 11-100)
T14 construct: Order of GST and PDZ part and limits not seen in the excerpts
T14 sequence (P29475 11-100 limits assumed): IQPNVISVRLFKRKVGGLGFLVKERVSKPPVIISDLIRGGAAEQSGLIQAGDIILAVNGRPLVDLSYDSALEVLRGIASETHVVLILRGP
Test: A/G assays

| Binder | binding result |
| --- | --- |
| B2 | no binding |
| B3 | no binding |
| B4 | no binding |
| B5 | no binding |
